Consider one molecule from publication PMC8007706, “Structural and functional analysis of LIM domain-dependent recruitment of paxillin to αvβ3 integrin-positive focal adhesions” (Communications Biology, 2021).

Assay [1] addresses T1, His-tagged talin-head (talin 1–405 aa), N-tagged version (UniProt P26039 1-405).
T1 construct: talin 1, residues 1–405 (head domain); also called TH; N-tagged talin; not shown: His tag, N-terminal, kept
Description: BLI; Octet RED384; biotinylated MBP-LIMs immobilised on streptavidin sensor (biocytin quench); His-tagged talin head in solution at 20, 80, 320, 1250 and 5000 nM; PBS with 1% BSA, 0.1% Tween-20, 0.05% sodium azide; 27 °C, 1000 rpm; biotinylated free MBP sensor subtracted; apparent affinity. To be noted: both partners purified. (Biolayer interferometry detects binding as a change in optical thickness at a sensor tip.)

For assay [2], the target named is T2, His-tagged talin-head (talin 1–405 aa), C-tagged version (UniProt P26039 1-405).
T2 construct: talin 1, residues 1–405 (head domain); also called TH; C-tagged talin; not shown: His tag, C-terminal, kept
The assay is described as above. The following applies: both partners purified.

T1 sequence (P26039 1-405): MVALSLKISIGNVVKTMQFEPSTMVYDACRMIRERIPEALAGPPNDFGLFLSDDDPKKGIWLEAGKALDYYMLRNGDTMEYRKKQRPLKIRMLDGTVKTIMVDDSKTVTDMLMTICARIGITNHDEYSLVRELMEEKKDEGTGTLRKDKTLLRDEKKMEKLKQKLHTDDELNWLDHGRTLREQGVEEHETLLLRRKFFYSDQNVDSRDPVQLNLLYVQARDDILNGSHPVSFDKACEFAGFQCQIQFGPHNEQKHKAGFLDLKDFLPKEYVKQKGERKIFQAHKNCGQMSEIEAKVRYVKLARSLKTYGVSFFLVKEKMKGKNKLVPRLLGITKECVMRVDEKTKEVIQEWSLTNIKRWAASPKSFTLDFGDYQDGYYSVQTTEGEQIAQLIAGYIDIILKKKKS
T2 sequence (P26039 1-405): as above

B1: biotinylated MBP-LIMs (domain or fragment, human, UniProt P49023-2 317-557, looked up)
chain: ATVAKGVCGACKKPIAGQVVTAMGKTWHPEHFVCTHCQEEIGSRNFFERDGQPYCEKDYHNLFSPRCYYCNGPILDKVVTALDRTWHPEHFFCAQCGAFFGPEGFHEKDGKAYCRKDYFDMFAPKCGGCARAILENYISALNTLWHPECFVCRECFTPFVNGSFFEHDGQPYCEVHYHERRGSLCSGCQKPITGRCITAMAKKFHPEHFVCAFCLKQLNKGTFKEQNDKPYCQNCFLKLFC
modifications: biotin (EZ-Link NHS-PEG4-Biotin)
notes: paxillin LIM1-LIM4, human paxillin α; limits as told for the LIMs construct (from residue 317), the MBP constructs being 'analogously produced'; numbered according to P49023-2; also called MBP-tagged and biotinylated LIM domains (LIMs)
For the molecule B1, the Kd in assay [1] is 720 nM; in assay [2], 770 nM.
